Results as given in US20260242478A1 (published 2026).
Where no end group is shown, it is not given here.

B1: Phage-3719 (peptide)
peptide: SEALCVPKWMCHGF
B2: Phage-3717 (peptide)
peptide: MEWHCKPKWMCEGF
B3: Phage-3757 (peptide)
peptide: TIMYCKPTWMCTGF
B4: Phage-3752 (peptide)
peptide: NSSLCIPSWMCSGF
B5: Phage-3744 (peptide)
peptide: PGKVCEPIWMCLGF
modifications: cysteine pairing not given here; also: displayed on phage as pIII fusion
B6: Phage-3712 (peptide)
peptide: EVWMCRPSWMCDGF
modifications: cysteine pairing not given here; also: displayed on phage as pIII fusion
notes: not shown: pIII filament protein of the bacteriophage
B7: Phage-3728 (peptide)
peptide: ESRLCVPTWMCTWL
B8: Phage-3763 (peptide, not shown: large carriers)
peptide: DQRECIPHWMCAGF
modifications: cysteine pairing not given here; also: displayed on phage as pIII fusion
notes: Clonal phage of the peptide-180 library, tested as crude phage supernatant
B9: Phage-3756 (peptide)
peptide: YHKECIPPWMCMGF
B10: Phage-3721 (peptide)
peptide: GENWCVPQWMCDGF
B11: Phage-3718 (peptide)
peptide: ESPICKPSWMCSGL
B12: Phage-3749 (peptide)
peptide: VPALCVPNWMCSGL
B13: Phage-3747 (peptide)
peptide: MEPVCLPEWMCWGF
B14: Phage-3723 (peptide)
peptide: PYAVCVPKWMCSGF
B15: Phage-3765 (peptide, not shown: large carriers)
peptide: MVIECRPEWMCVGF
notes: as for B8
B16: Phage-3727 (peptide)
peptide: IDRHCVPRWMCDGL
B17: Phage-3713 (peptide)
peptide: LEGMCKPAWMCTGF
modifications: cysteine pairing not given here; also: displayed on phage as pIII fusion
notes: as for B6
B18: Phage-3762 (peptide, not shown: large carriers)
peptide: LVHLCKPPWMCHGF
notes: as for B8
B19: Phage-3725 (peptide)
peptide: DVLMCTPRWMCDGF
B20: Phage-3753 (peptide)
peptide: FELYCVPAWMCSGF
B21: Phage-3746 (peptide)
peptide: VMPRCEPIWMCRGF
B22: Phage-3761 (peptide, not shown: large carriers)
peptide: EVVACVPEWMCVGF
notes: as for B8
B23: Phage-3755 (peptide)
peptide: EEMMCKPDWMCYGF
B24: Phage-3748 (peptide)
peptide: QSVMCRPAWMCEGF
B25: Phage-3724 (peptide)
peptide: EEKLCKPAWMCEWF
B26: Phage-3715 (peptide)
peptide: YGVQCVPSWMCQGF
B27: Phage-3714 (peptide)
peptide: GQAACVPSWMCSGF
modifications: cysteine pairing not given here; also: displayed on phage as pIII fusion
notes: as for B6
B28: Phage-3720 (peptide)
peptide: EPRACVPFWMCLGF
B29: Phage-3710 (peptide)
peptide: EGRYCVPDWMCLGL
modifications: cysteine pairing not given here; also: displayed on phage as pIII fusion
notes: as for B6
B30: Phage-3758 (peptide, not shown: large carriers)
peptide: YETVCKPLWMCTGF
modifications: cysteine pairing not given here; also: displayed on phage as pIII fusion
notes: as for B8
B31: Phage-3760 (peptide, not shown: large carriers)
peptide: VLPSCIPSWMCNGF
notes: as for B8
B32: Phage-3764 (peptide, not shown: large carriers)
peptide: ENRMCIPEWMCQAS
notes: as for B8
B33: Phage-3754 (peptide)
peptide: EAKVCKPAWMCDGL
B34: Phage-3716 (peptide)
peptide: IERMCMPPWMCSAL
B35: Phage-3759 (peptide, not shown: large carriers)
peptide: DVGMCRPKWMCDGF
notes: as for B8
B36: Phage-3722 (peptide)
peptide: AYMKCSPAWMCEGF
B37: Phage-3726 (peptide)
peptide: TLFACVPAWMCDGF
B38: Phage-3711 (peptide)
peptide: IAFRCVPEWMCSAF
modifications: cysteine pairing not given here; also: displayed on phage as pIII fusion
notes: as for B6
B39: Phage-3750 (peptide)
peptide: EQPACVPKWMCIGF
B40: Phage-3751 (peptide)
peptide: ETPRCVPWWMCIDI
B41: Phage-3745 (peptide)
peptide: WIKECVPDWMCSGF
B42: Phage-3766 (peptide, not shown: large carriers)
peptide: LYGVCVPEWMCHGF
notes: as for B8

Columns and labels:
PSMA Fab (006 PSMA Fab) [1] = target: T1, PSMA Fab (006 PSMA Fab) (biotinylated (site not stated)); assay: phage ELISA: clonal phage on biotinylated PSMA Fab captured on neutravidin plate, anti-M13 HRP detection
T1 construct: Captured as biotinylated PSMA Fab on neutravidin coated plates in the phage ELISA; also called Anti-PSMA Fab; anti-PSMA Fab

PSMA Fab (006 PSMA Fab) [2] = target: T1, PSMA Fab (006 PSMA Fab); assay: phage ELISA: clonal phage on biotinylated PSMA Fab captured on neutravidin plate, wells pre-incubated with PSMA antigen as competitor, anti-M13 HRP detection
Experimental: (§1) Clonal phage were harvested as crude supernatants and screened via standard ELISAs. […] Prior to the addition of clonal phage. wells were incubated with blocking buffer and PSMA antigen or blocking buffer alone. Without washing or aspirating, clonal phage supernatants were then added to the wells and incubated for a short time. Wells were then washed followed by detection of bound phage using a horse radish conjugated anti-M13 antibody.

PSMA Fab [3] = target: T2, PSMA Fab; assay: clonal phage ELISA; biotinylated PSMA Fab on neutravidin plate, blocking buffer alone; anti-M13 HRP detection;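 further: crude clonal phage supernatants added without washing to wells pretreated with blocking buffer with or without PSMA antigen, short incubation, then washed before detecting bound phage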
T2 construct: also called Anti-PSMA Fab; 006 PSMA Fab
Experimental: as §1

PSMA Fab [4] = target: T2, PSMA Fab; assay: clonal phage ELISA; biotinylated PSMA Fab on neutravidin plate, wells pre-incubated with PSMA antigen as competitor; anti-M13 HRP detection;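 further: crude clonal phage supernatants added to antigen-treated wells without a wash, incubated briefly, then bound phage read out via horse radish–conjugated anti-M13 antibody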
Experimental: as §1

PSMA Fab (006 PSMA Fab) [5] = target: T3, PSMA Fab (006 PSMA Fab) (biotinylated (site not stated)); assay: clonal phage supernatant on biotinylated PSMA Fab captured on neutravidin plate, anti-M13-HRP detection;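 further: before phage were added, wells received PSMA antigen in blocking buffer or blocking buffer alone, with no wash in between, followed by a short phage incubation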
T3 construct: Biotinylated PSMA Fab captured on neutravidin coated plates in the phage ELISA; also called Anti-PSMA Fab; anti-PSMA Fab

PSMA Fab (006 PSMA Fab) [6] = target: T3, PSMA Fab (006 PSMA Fab); assay: clonal phage supernatant on captured PSMA Fab pre-incubated with the competitor PSMA antigen, anti-M13-HRP detection
Experimental: as §1

PSMA Fab (006 PSMA Fab) [7] = target: T4, PSMA Fab (006 PSMA Fab) (biotinylated (site not stated)); assay: clonal phage ELISA on biotinylated PSMA Fab captured on neutravidin plate, blocking buffer alone; anti-M13 HRP detection
T4 construct: also called Anti-PSMA Fab; anti-PSMA Fab

Binder	Phage binding ELISA signal, Anti-PSMA Fab (PSMA Fab (006 PSMA Fab) [1])	Phage binding ELISA signal, Anti-PSMA Fab in presence of PSMA (PSMA Fab (006 PSMA Fab) [2])	Phage binding ELISA signal, Anti-PSMA Fab (PSMA Fab [3])	Phage binding ELISA signal, Anti-PSMA Fab with PSMA antigen (PSMA Fab [4])	other results
B1	1.42	0.0994			
B2	1.42	0.0772			
B3			1.37	0.0727	
B4			1.37	0.0738	
B5			1.38	0.124	
B6					Phage binding ELISA signal, Anti-PSMA Fab (PSMA Fab (006 PSMA Fab) [5]): 1.43; Phage binding ELISA signal, Anti-PSMA Fab in presence of PSMA antigen (PSMA Fab (006 PSMA Fab) [6]): 0.0717
B7	1.41	0.0946			
B8					Phage binding ELISA signal, Anti-PSMA Fab (PSMA Fab (006 PSMA Fab) [7]): 1.36
B9			1.37	0.0922	
B10	1.41	0.139			
B11	1.42	0.0616			
B12			1.38	0.0565	
B13			1.38	0.0902	
B14	1.41	0.0805			
B15					Phage binding ELISA signal, Anti-PSMA Fab (PSMA Fab (006 PSMA Fab) [7]): 1.35
B16	1.41	0.0751			
B17					Phage binding ELISA signal, Anti-PSMA Fab (PSMA Fab (006 PSMA Fab) [5]): 1.42; Phage binding ELISA signal, Anti-PSMA Fab in presence of PSMA antigen (PSMA Fab (006 PSMA Fab) [6]): 0.0862
B18					Phage binding ELISA signal, Anti-PSMA Fab (PSMA Fab (006 PSMA Fab) [7]): 1.36
B19	1.41	0.0822			
B20			1.37	0.16	
B21			1.38	0.0701	

Binder	Phage binding ELISA signal, Anti-PSMA Fab (PSMA Fab (006 PSMA Fab) [1])	Phage binding ELISA signal, Anti-PSMA Fab in presence of PSMA (PSMA Fab (006 PSMA Fab) [2])	Phage binding ELISA signal, Anti-PSMA Fab (PSMA Fab [3])	Phage binding ELISA signal, Anti-PSMA Fab with PSMA antigen (PSMA Fab [4])	other results
B22					Phage binding ELISA signal, Anti-PSMA Fab (PSMA Fab (006 PSMA Fab) [7]): 1.36
B23			1.37	0.109	
B24			1.38	0.0813	
B25	1.41	0.096			
B26	1.42	0.0735			
B27					Phage binding ELISA signal, Anti-PSMA Fab (PSMA Fab (006 PSMA Fab) [5]): 1.42; Phage binding ELISA signal, Anti-PSMA Fab in presence of PSMA antigen (PSMA Fab (006 PSMA Fab) [6]): 0.0867
B28	1.42	0.0796			
B29					Phage binding ELISA signal, Anti-PSMA Fab (PSMA Fab (006 PSMA Fab) [5]): 1.43; Phage binding ELISA signal, Anti-PSMA Fab in presence of PSMA antigen (PSMA Fab (006 PSMA Fab) [6]): 0.0705
B30					Phage binding ELISA signal, Anti-PSMA Fab (PSMA Fab (006 PSMA Fab) [7]): 1.36
B31					Phage binding ELISA signal, Anti-PSMA Fab (PSMA Fab (006 PSMA Fab) [7]): 1.36
B32					Phage binding ELISA signal, Anti-PSMA Fab (PSMA Fab (006 PSMA Fab) [7]): 1.36
B33			1.37	0.077	
B34	1.42	0.0662			
B35					Phage binding ELISA signal, Anti-PSMA Fab (PSMA Fab (006 PSMA Fab) [7]): 1.36
B36	1.41	0.0811			
B37	1.41	0.0757			
B38					Phage binding ELISA signal, Anti-PSMA Fab (PSMA Fab (006 PSMA Fab) [5]): 1.43; Phage binding ELISA signal, Anti-PSMA Fab in presence of PSMA antigen (PSMA Fab (006 PSMA Fab) [6]): 0.07
B39			1.38	0.0893	
B40			1.37	0.0731	
B41			1.38	0.0803	
B42					Phage binding ELISA signal, Anti-PSMA Fab (PSMA Fab (006 PSMA Fab) [7]): 1.35
